The results in this text go back to patent US12698507B2, “Methods and compositions for conferring and/or enhancing herbicide tolerance using protoporphyrinogen IX oxidase of various cyanobacteria or variant thereof” (FarmHannong Co., Ltd., priority 2019, dated 2026).

The test system of the test is PPO-deficient BT3 E. coli (ΔPPO). Description: PPO-inhibiting herbicide tolerance test of PPO variants in E. coli (growth on herbicide-containing LB agar). Conditions: CyPPO19 variants in BT3 (ΔPPO) E. coli; LB agar with 0 to 2,000 μM herbicide, 37° C., dark, 16-20 hours. It is filed as cell-based. Put shortly: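 Transformants were grown to OD600 0.5–1, adjusted to OD600=0.5 and spotted as 10-fold dilutions on LB agar with ampicillin (100 μg/mL) and 0 to 2,000 μM herbicide. Plates were kept at 37° C in the dark for 16-20 hours; growth was scored relative to wild type, one '+' per 10-fold resistance.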

B1: CyPPO19 L327T + F360I: variant of CyPPO19 PPO protein (SEQ ID NO: 1) (protein)
chain: MSEVDVAIVGGGLSGLSLAWRLQQSAPQYSVVLLEASDRLGGNITTQTAEGFVWELGPNSFAPTPALLQLIAEVGLQSELIRGDRHLPRYIYWRGQLYPLQPTRPLALATSNLLSPWGKVRAALGALGFVPPYLGSGDESVNSFFRRHLGQEVAERLVAPFVSGVYAGDPQQLSAAAAFRRIAQLEKLGGGLIAGALHLRRQQAPKPKPPTSVQMRPGELGSFKEGLAALPRAIAQQLKAPIHLQTPVQEITPDPKGGYLLRSGEQTWRARSVVLATPAYQTAELVAPFQPAIARVLATIPYPTVACVVLAYPAGLGRSVRPGFGVTIPRSQGIRTLGTIWSSCLFPQRTPAGWQVFTSIIGGATDPDLASLSEEAIVQQVQQDLNRLLDLPAAKARLLGMKVWRRAIPQYMVGYPEQWQQVTHALSQTPGLFLCSNYAEGVALGDRVEHGNRTAAAVAAYLSGGQP
modifications: Synthetic_PPO of Thermosynechococcus elongatus PKUAC-SCTE542 (comprising GenBank No. CP032152.1)
Regarding B1, the “tolerance level relative to wild type, Carfentrazone” value is recorded as “+ (‘+’ per each 10-fold resistance)”; the “tolerance level relative to wild type, Flumioxazin” value was “++++ (‘+’ per each 10-fold resistance)”; the “tolerance level relative to wild type, Fomesafen” value was “+ (‘+’ per each 10-fold resistance)”; the “tolerance level relative to wild type, Oxyfluorfen” value is listed as “++ (‘+’ per each 10-fold resistance)”. The “tolerance level relative to wild type, Saflufenacil” value was “++ (‘+’ per each 10-fold resistance)”; the “tolerance level relative to wild type, Sulfentrazone” value is reported as “+++ (‘+’ per each 10-fold resistance)”; the “tolerance level relative to wild type, Tiafenacil” value is “++++ (‘+’ per each 10-fold resistance)”.

B2: CyPPO19 L327T + F360V: variant of CyPPO19 PPO protein (SEQ ID NO: 1) (protein)
chain: MSEVDVAIVGGGLSGLSLAWRLQQSAPQYSVVLLEASDRLGGNITTQTAEGFVWELGPNSFAPTPALLQLIAEVGLQSELIRGDRHLPRYIYWRGQLYPLQPTRPLALATSNLLSPWGKVRAALGALGFVPPYLGSGDESVNSFFRRHLGQEVAERLVAPFVSGVYAGDPQQLSAAAAFRRIAQLEKLGGGLIAGALHLRRQQAPKPKPPTSVQMRPGELGSFKEGLAALPRAIAQQLKAPIHLQTPVQEITPDPKGGYLLRSGEQTWRARSVVLATPAYQTAELVAPFQPAIARVLATIPYPTVACVVLAYPAGLGRSVRPGFGVTIPRSQGIRTLGTIWSSCLFPQRTPAGWQVFTSVIGGATDPDLASLSEEAIVQQVQQDLNRLLDLPAAKARLLGMKVWRRAIPQYMVGYPEQWQQVTHALSQTPGLFLCSNYAEGVALGDRVEHGNRTAAAVAAYLSGGQP
modifications: Synthetic_PPO of Thermosynechococcus elongatus PKUAC-SCTE542 (comprising GenBank No. CP032152.1)
Consider B2, for which the “tolerance level relative to wild type, Carfentrazone” value is recorded as “+ (‘+’ per each 10-fold resistance)”; the “tolerance level relative to wild type, Flumioxazin” value is given as “++++ (‘+’ per each 10-fold resistance)”; the “tolerance level relative to wild type, Fomesafen” value is “+ (‘+’ per each 10-fold resistance)”; the “tolerance level relative to wild type, Oxyfluorfen” value is “++ (‘+’ per each 10-fold resistance)”. In addition, the “tolerance level relative to wild type, Saflufenacil” value is on record as “++ (‘+’ per each 10-fold resistance)”; the “tolerance level relative to wild type, Sulfentrazone” value is on record as “++ (‘+’ per each 10-fold resistance)”; the “tolerance level relative to wild type, Tiafenacil” value is given as “++++ (‘+’ per each 10-fold resistance)”.

B3: CyPPO19 I408W + F360I: variant of CyPPO19 PPO protein (SEQ ID NO: 1) (protein)
chain: MSEVDVAIVGGGLSGLSLAWRLQQSAPQYSVVLLEASDRLGGNITTQTAEGFVWELGPNSFAPTPALLQLIAEVGLQSELIRGDRHLPRYIYWRGQLYPLQPTRPLALATSNLLSPWGKVRAALGALGFVPPYLGSGDESVNSFFRRHLGQEVAERLVAPFVSGVYAGDPQQLSAAAAFRRIAQLEKLGGGLIAGALHLRRQQAPKPKPPTSVQMRPGELGSFKEGLAALPRAIAQQLKAPIHLQTPVQEITPDPKGGYLLRSGEQTWRARSVVLATPAYQTAELVAPFQPAIARVLATIPYPTVACVVLAYPAGLGRSVRPGFGVLIPRSQGIRTLGTIWSSCLFPQRTPAGWQVFTSIIGGATDPDLASLSEEAIVQQVQQDLNRLLDLPAAKARLLGMKVWRRAWPQYMVGYPEQWQQVTHALSQTPGLFLCSNYAEGVALGDRVEHGNRTAAAVAAYLSGGQP
modifications: Synthetic_PPO of Thermosynechococcus elongatus PKUAC-SCTE542 (comprising GenBank No. CP032152.1)
Regarding B3, the “tolerance level relative to wild type, Carfentrazone” value is given as “+ (‘+’ per each 10-fold resistance)”; the “tolerance level relative to wild type, Flumioxazin” value was “+++ (‘+’ per each 10-fold resistance)”; the “tolerance level relative to wild type, Fomesafen” value is reported as “+++ (‘+’ per each 10-fold resistance)”; the “tolerance level relative to wild type, Oxyfluorfen” value is “++ (‘+’ per each 10-fold resistance)”. The “tolerance level relative to wild type, Saflufenacil” value was “+++ (‘+’ per each 10-fold resistance)”; the “tolerance level relative to wild type, Sulfentrazone” value was “+++ (‘+’ per each 10-fold resistance)”; the “tolerance level relative to wild type, Tiafenacil” value is recorded as “++++ (‘+’ per each 10-fold resistance)”.

B4: CyPPO19 L327T + F360T: variant of CyPPO19 PPO protein (SEQ ID NO: 1) (protein)
chain: MSEVDVAIVGGGLSGLSLAWRLQQSAPQYSVVLLEASDRLGGNITTQTAEGFVWELGPNSFAPTPALLQLIAEVGLQSELIRGDRHLPRYIYWRGQLYPLQPTRPLALATSNLLSPWGKVRAALGALGFVPPYLGSGDESVNSFFRRHLGQEVAERLVAPFVSGVYAGDPQQLSAAAAFRRIAQLEKLGGGLIAGALHLRRQQAPKPKPPTSVQMRPGELGSFKEGLAALPRAIAQQLKAPIHLQTPVQEITPDPKGGYLLRSGEQTWRARSVVLATPAYQTAELVAPFQPAIARVLATIPYPTVACVVLAYPAGLGRSVRPGFGVTIPRSQGIRTLGTIWSSCLFPQRTPAGWQVFTSTIGGATDPDLASLSEEAIVQQVQQDLNRLLDLPAAKARLLGMKVWRRAIPQYMVGYPEQWQQVTHALSQTPGLFLCSNYAEGVALGDRVEHGNRTAAAVAAYLSGGQP
modifications: Synthetic_PPO of Thermosynechococcus elongatus PKUAC-SCTE542 (comprising GenBank No. CP032152.1)
On to B4, for which the “tolerance level relative to wild type, Carfentrazone” value is recorded as “+ (‘+’ per each 10-fold resistance)”; the “tolerance level relative to wild type, Flumioxazin” value was “+ (‘+’ per each 10-fold resistance)”; the “tolerance level relative to wild type, Fomesafen” value is “+ (‘+’ per each 10-fold resistance)”; the “tolerance level relative to wild type, Oxyfluorfen” value was “+ (‘+’ per each 10-fold resistance)”. Moreover, the “tolerance level relative to wild type, Saflufenacil” value is recorded as “+ (‘+’ per each 10-fold resistance)”; the “tolerance level relative to wild type, Sulfentrazone” value is reported as “+ (‘+’ per each 10-fold resistance)”; the “tolerance level relative to wild type, Tiafenacil” value is “++ (‘+’ per each 10-fold resistance)”.

B5: CyPPO19 L327T + F360M: variant of CyPPO19 PPO protein (SEQ ID NO: 1) (protein)
chain: MSEVDVAIVGGGLSGLSLAWRLQQSAPQYSVVLLEASDRLGGNITTQTAEGFVWELGPNSFAPTPALLQLIAEVGLQSELIRGDRHLPRYIYWRGQLYPLQPTRPLALATSNLLSPWGKVRAALGALGFVPPYLGSGDESVNSFFRRHLGQEVAERLVAPFVSGVYAGDPQQLSAAAAFRRIAQLEKLGGGLIAGALHLRRQQAPKPKPPTSVQMRPGELGSFKEGLAALPRAIAQQLKAPIHLQTPVQEITPDPKGGYLLRSGEQTWRARSVVLATPAYQTAELVAPFQPAIARVLATIPYPTVACVVLAYPAGLGRSVRPGFGVTIPRSQGIRTLGTIWSSCLFPQRTPAGWQVFTSMIGGATDPDLASLSEEAIVQQVQQDLNRLLDLPAAKARLLGMKVWRRAIPQYMVGYPEQWQQVTHALSQTPGLFLCSNYAEGVALGDRVEHGNRTAAAVAAYLSGGQP
modifications: Synthetic_PPO of Thermosynechococcus elongatus PKUAC-SCTE542 (comprising GenBank No. CP032152.1)
B5: the “tolerance level relative to wild type, Carfentrazone” value is recorded as “+ (‘+’ per each 10-fold resistance)”; the “tolerance level relative to wild type, Flumioxazin” value is “+++ (‘+’ per each 10-fold resistance)”; the “tolerance level relative to wild type, Fomesafen” value is reported as “+ (‘+’ per each 10-fold resistance)”; the “tolerance level relative to wild type, Oxyfluorfen” value is reported as “++ (‘+’ per each 10-fold resistance)”. Moreover, the “tolerance level relative to wild type, Saflufenacil” value is given as “+ (‘+’ per each 10-fold resistance)”; the “tolerance level relative to wild type, Sulfentrazone” value was “+ (‘+’ per each 10-fold resistance)”; the “tolerance level relative to wild type, Tiafenacil” value is reported as “+++ (‘+’ per each 10-fold resistance)”.

B6: CyPPO19 L327T + F360L: variant of CyPPO19 PPO protein (SEQ ID NO: 1) (protein)
chain: MSEVDVAIVGGGLSGLSLAWRLQQSAPQYSVVLLEASDRLGGNITTQTAEGFVWELGPNSFAPTPALLQLIAEVGLQSELIRGDRHLPRYIYWRGQLYPLQPTRPLALATSNLLSPWGKVRAALGALGFVPPYLGSGDESVNSFFRRHLGQEVAERLVAPFVSGVYAGDPQQLSAAAAFRRIAQLEKLGGGLIAGALHLRRQQAPKPKPPTSVQMRPGELGSFKEGLAALPRAIAQQLKAPIHLQTPVQEITPDPKGGYLLRSGEQTWRARSVVLATPAYQTAELVAPFQPAIARVLATIPYPTVACVVLAYPAGLGRSVRPGFGVTIPRSQGIRTLGTIWSSCLFPQRTPAGWQVFTSLIGGATDPDLASLSEEAIVQQVQQDLNRLLDLPAAKARLLGMKVWRRAIPQYMVGYPEQWQQVTHALSQTPGLFLCSNYAEGVALGDRVEHGNRTAAAVAAYLSGGQP
modifications: Synthetic_PPO of Thermosynechococcus elongatus PKUAC-SCTE542 (comprising GenBank No. CP032152.1)
Regarding B6, the “tolerance level relative to wild type, Carfentrazone” value is reported as “+ (‘+’ per each 10-fold resistance)”; the “tolerance level relative to wild type, Flumioxazin” value is “++++ (‘+’ per each 10-fold resistance)”; the “tolerance level relative to wild type, Fomesafen” value is listed as “++ (‘+’ per each 10-fold resistance)”; the “tolerance level relative to wild type, Oxyfluorfen” value is recorded as “++ (‘+’ per each 10-fold resistance)”. In addition, the “tolerance level relative to wild type, Saflufenacil” value is recorded as “+ (‘+’ per each 10-fold resistance)”; the “tolerance level relative to wild type, Sulfentrazone” value is “++ (‘+’ per each 10-fold resistance)”; the “tolerance level relative to wild type, Tiafenacil” value is “++++ (‘+’ per each 10-fold resistance)”.
